Measured values as given in the supplement of paper PMC7877785.
± gives the uncertainty stated by the source.

Assay: self-splicing fitness, log relative to wild type (ln ratio); higher = more splicing; Tetrahymena group I intron in knt gene, E. coli kanamycin selection, DiMSum; sequences stand for … in CUCUCU…GGAGGGAAAAGUUAUCAGGCAUGCACCUGGUAGCUAGUCUUUAAACCAAUAGAUUGCAUCGGUUUAAAAGGCAAGACCGUCAAAUUGCGGGAAAGGGGUCAACAGCCGUUCAGUACCAAGUCUCAGGGGAAACUUUGAGAUGGCCUUGCAAAGGGUAUGGUAAUAAGCUGACGGACAUGGUCCUAACCACGCAGCCAAGUCCUAAGUCAACAGAUCUUCUGUUGAUAUGGAUGCAGUUCACAGACUAAAUGUCGGUCGGGGAAGAUGUAUUCUUCUCAUAAGAUAUAGUCGGACCUCUCCUUAAUGGGAGCUAGCGGAUGAAGUGAUGCAACACUGGAGCCGCUGGGAACUAAUUUGUAUGCGAAAGUAUAUUGAUUAGUUUUGGAGUACUCGUGGUCG
Method in brief: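 Colonies from six replicate transformations of E. coli BL21(DE3) were pooled and amplicon-sequenced on an Illumina HiSeq 2500. The library placed an intron with all eight P1ex-region nucleotides randomised inside the knt kanamycin-resistance gene on pET-22b(+), and cells grew overnight at 37°C or 30°C on LB agar with or without 25 μg/mL kanamycin (plus 100 μg/mL carbenicillin, 50 μM IPTG, 0.2% rhamnose). Fitness is the DiMSum error-weighted combination of wild-type-normalised replicate fold changes, kanamycin versus none.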

Sequence	self-splicing fitness (ln) (37 °C)	self-splicing fitness (ln) (30 °C)
UGUGAGCAAUAUUACGGAUU	-1.59 ± 0.34	–
UGUGAGCAAUAUUACGGCAU	-1.53 ± 0.15	-3.25 ± 0.28
UGUGAGCAAUAUUACGGGUG	-1.9 ± 0.13	-2.6 ± 0.14
UGUGAGCAAUAUUACGGUAC	-2.3 ± 0.29	-3.38 ± 0.28
UGUGAGCAAUAUUACGGUCC	-2.09 ± 0.42	-3.6 ± 0.48
UGUGAGCAAUAUUACGUACA	-0.41 ± 0.1	-1.04 ± 0.091
UGUGAGCAAUAUUACGUCUC	–	-1.96 ± 0.25
UGUGAGCAAUAUUACGUGAU	–	-5.21 ± 0.36
UGUGAGCAAUAUUACGUUCA	-1.56 ± 0.39	-3.06 ± 0.31
UGUUAGCAAUAUUACGAAGG	-2.16 ± 0.27	-1.88 ± 0.16
UGUUAGCAAUAUUACGACAA	0.123 ± 0.16	-0.407 ± 0.18
UGUUAGCAAUAUUACGACAG	0.0704 ± 0.2	-1.39 ± 0.17
UGUUAGCAAUAUUACGACGU	-1.37 ± 0.1	-0.716 ± 0.11
UGUUAGCAAUAUUACGCAUC	-1.93 ± 0.27	–
UGUUAGCAAUAUUACGCCCG	0.289 ± 0.22	-0.283 ± 0.18
UGUUAGCAAUAUUACGCCUA	0.387 ± 0.15	-1.17 ± 0.13
UGUUAGCAAUAUUACGGAGG	–	-2.3 ± 0.45
UGUUAGCAAUAUUACGGCUC	0.0795 ± 0.15	-2.55 ± 0.22
UGUUAGCAAUAUUACGGGAG	-3.42 ± 0.25	-3.62 ± 0.25
UGUUAGCAAUAUUACGGGGA	-2.2 ± 0.19	-2.84 ± 0.22
UGUUAGCAAUAUUACGGUCC	–	-2.6 ± 0.38
UGUUAGCAAUAUUACGUCAC	-2.64 ± 0.38	-3.58 ± 0.33
UGUUAGCAAUAUUACGUCAG	-0.486 ± 0.2	-1.61 ± 0.15
UGUUAGCAAUAUUACGUUCG	0.292 ± 0.16	0.135 ± 0.16
UGUUAGCAAUAUUACGUUUA	-0.902 ± 0.098	-1.78 ± 0.09

Sequence	self-splicing fitness (ln) (37 °C)	self-splicing fitness (ln) (30 °C)
UUAAAGCAAUAUUACGACUG	0.184 ± 0.12	-0.0352 ± 0.08
UUAAAGCAAUAUUACGAGGU	-3.3 ± 0.27	-4.09 ± 0.24
UUAAAGCAAUAUUACGCAAG	0.145 ± 0.14	-0.46 ± 0.1
UUAAAGCAAUAUUACGCGGU	-0.344 ± 0.13	-3.37 ± 0.18
UUAAAGCAAUAUUACGCGUU	-1.49 ± 0.13	-2.44 ± 0.12
UUAAAGCAAUAUUACGGACA	0.068 ± 0.11	-0.00448 ± 0.072
UUAAAGCAAUAUUACGGAUU	-1.74 ± 0.14	-2.69 ± 0.1
UUAAAGCAAUAUUACGGCAC	-0.195 ± 0.13	-1.19 ± 0.1
UUAAAGCAAUAUUACGGCCA	-0.188 ± 0.17	-0.086 ± 0.13
UUAAAGCAAUAUUACGGCGC	0.34 ± 0.17	-0.589 ± 0.11
UUAAAGCAAUAUUACGGGAC	-2.24 ± 0.28	-3.27 ± 0.24
UUAAAGCAAUAUUACGGGCC	-1.25 ± 0.28	-1.7 ± 0.21
UUAAAGCAAUAUUACGGGCG	-0.11 ± 0.1	0.077 ± 0.081
UUAAAGCAAUAUUACGGUAU	-1.22 ± 0.11	-2.14 ± 0.086
UUAAAGCAAUAUUACGGUGA	0.559 ± 0.13	-0.488 ± 0.097
UUAAAGCAAUAUUACGUAGG	0.067 ± 0.13	-1.29 ± 0.11
UUAAAGCAAUAUUACGUCAC	-1.76 ± 0.22	-2.97 ± 0.16
UUAAAGCAAUAUUACGUCCG	0.242 ± 0.15	-0.581 ± 0.12
UUAAAGCAAUAUUACGUCCU	-0.281 ± 0.096	-0.682 ± 0.081
UUAAAGCAAUAUUACGUGCU	-0.057 ± 0.12	-1.16 ± 0.082
UUAAAGCAAUAUUACGUGUU	-1.96 ± 0.16	-3 ± 0.13
UUAAAGCAAUAUUACGUUGG	-0.746 ± 0.1	-1.12 ± 0.094
UUACAGCAAUAUUACGAUUC	-0.667 ± 0.097	-2.03 ± 0.092
UUACAGCAAUAUUACGCACA	0.168 ± 0.12	-0.783 ± 0.12
UUACAGCAAUAUUACGCAUA	-0.527 ± 0.1	-1.34 ± 0.091

Sequence	self-splicing fitness (ln) (37 °C)	self-splicing fitness (ln) (30 °C)
UUACAGCAAUAUUACGCAUG	-0.0513 ± 0.087	-1.18 ± 0.069
UUACAGCAAUAUUACGCCCG	0.245 ± 0.25	-0.115 ± 0.18
UUACAGCAAUAUUACGCCCU	-0.401 ± 0.26	-2.55 ± 0.24
UUACAGCAAUAUUACGCCGA	-0.354 ± 0.22	-1.29 ± 0.2
UUACAGCAAUAUUACGCCGU	-2.05 ± 0.31	–
UUACAGCAAUAUUACGCGAC	-1.41 ± 0.18	-2.37 ± 0.17
UUACAGCAAUAUUACGCGCU	-2.04 ± 0.31	-2.93 ± 0.37
UUACAGCAAUAUUACGCGUA	-1.94 ± 0.16	-3.07 ± 0.2
UUACAGCAAUAUUACGCGUC	-1.32 ± 0.19	-3.64 ± 0.2
UUACAGCAAUAUUACGCGUU	-1.95 ± 0.15	-3.05 ± 0.14
UUACAGCAAUAUUACGCUGG	-2.08 ± 0.23	-4.24 ± 0.32
UUACAGCAAUAUUACGGCCC	–	-0.167 ± 0.33
UUACAGCAAUAUUACGGCGA	0.489 ± 0.11	-0.0852 ± 0.081
UUACAGCAAUAUUACGGGCG	0.0547 ± 0.066	-0.655 ± 0.051
UUACAGCAAUAUUACGGUAC	-2.26 ± 0.14	-3.98 ± 0.22
UUACAGCAAUAUUACGGUAG	-0.729 ± 0.13	-1.92 ± 0.12
UUACAGCAAUAUUACGUAAA	-0.34 ± 0.12	-1.59 ± 0.13
UUACAGCAAUAUUACGUACG	0.0876 ± 0.1	-0.291 ± 0.075
UUACAGCAAUAUUACGUAUU	-1.55 ± 0.12	-2.89 ± 0.14
UUACAGCAAUAUUACGUUAU	-1.98 ± 0.14	-1.91 ± 0.087
UUAGAGCAAUAUUACGAACU	-1.92 ± 0.43	–
UUAGAGCAAUAUUACGACCU	-1.49 ± 0.43	-3.64 ± 0.41
UUAGAGCAAUAUUACGAGAA	-0.981 ± 0.21	-1.75 ± 0.17
UUAGAGCAAUAUUACGAGCC	–	-0.789 ± 0.47
UUAGAGCAAUAUUACGAGUG	-1.53 ± 0.13	-3.12 ± 0.16

Sequence	self-splicing fitness (ln) (37 °C)	self-splicing fitness (ln) (30 °C)
UUAGAGCAAUAUUACGAUGU	-2.43 ± 0.41	-2.59 ± 0.41
UUAGAGCAAUAUUACGCCUU	-1.08 ± 0.16	-2.34 ± 0.13
UUAGAGCAAUAUUACGCGAA	-0.155 ± 0.18	-0.809 ± 0.14
UUAGAGCAAUAUUACGCGUC	–	-2.56 ± 0.29
UUAGAGCAAUAUUACGGAAC	-2.33 ± 0.37	-4.11 ± 0.39
UUAGAGCAAUAUUACGGAUU	-2.48 ± 0.27	-3.74 ± 0.28
UUAGAGCAAUAUUACGGCGG	0.0643 ± 0.2	-0.922 ± 0.14
UUAGAGCAAUAUUACGGGAC	-2.8 ± 0.22	-3.75 ± 0.36
UUAGAGCAAUAUUACGUGCU	-1.79 ± 0.4	–
UUAGAGCAAUAUUACGUGGU	-2.61 ± 0.39	-3.98 ± 0.43
UUAGAGCAAUAUUACGUUGU	-2.4 ± 0.19	-4.16 ± 0.31
UUAUAGCAAUAUUACGAAGA	-1.99 ± 0.32	–
UUAUAGCAAUAUUACGACCA	-0.384 ± 0.21	-0.882 ± 0.2
UUAUAGCAAUAUUACGAGCU	-2.16 ± 0.26	–
UUAUAGCAAUAUUACGAUGG	-0.128 ± 0.14	-1.24 ± 0.1
UUAUAGCAAUAUUACGCAGC	-2.49 ± 0.45	-3.44 ± 0.31
UUAUAGCAAUAUUACGCAGG	-0.791 ± 0.16	-1.06 ± 0.13
UUAUAGCAAUAUUACGCCGG	-0.599 ± 0.32	-0.862 ± 0.19
UUAUAGCAAUAUUACGCCUG	-0.933 ± 0.37	-0.833 ± 0.4
UUAUAGCAAUAUUACGCGCG	-0.475 ± 0.18	0.0634 ± 0.16
UUAUAGCAAUAUUACGCGUC	-1.11 ± 0.41	–
UUAUAGCAAUAUUACGCUGU	-1.06 ± 0.37	-3.59 ± 0.37
UUAUAGCAAUAUUACGCUUA	-1.09 ± 0.26	-1.92 ± 0.33
UUAUAGCAAUAUUACGCUUU	-2.6 ± 0.26	-2.99 ± 0.28
UUAUAGCAAUAUUACGGACA	-0.61 ± 0.12	-1.66 ± 0.14
